In publication PMC4282830 one finds fold increase in intensity of the C3b:DBP band, denatured versus native DBP data, which are given here for 1 substance.

The target of the experiment is guanidine hydrochloride denatured vitamin D binding protein (human) (UniProt P02774). In words: covalent complex formation, reducing SDS-PAGE and immunoblot. A general note: A western blot detects proteins with antibodies after separation by electrophoresis.
Sequence of UniProt P02774 (P02774 17-474): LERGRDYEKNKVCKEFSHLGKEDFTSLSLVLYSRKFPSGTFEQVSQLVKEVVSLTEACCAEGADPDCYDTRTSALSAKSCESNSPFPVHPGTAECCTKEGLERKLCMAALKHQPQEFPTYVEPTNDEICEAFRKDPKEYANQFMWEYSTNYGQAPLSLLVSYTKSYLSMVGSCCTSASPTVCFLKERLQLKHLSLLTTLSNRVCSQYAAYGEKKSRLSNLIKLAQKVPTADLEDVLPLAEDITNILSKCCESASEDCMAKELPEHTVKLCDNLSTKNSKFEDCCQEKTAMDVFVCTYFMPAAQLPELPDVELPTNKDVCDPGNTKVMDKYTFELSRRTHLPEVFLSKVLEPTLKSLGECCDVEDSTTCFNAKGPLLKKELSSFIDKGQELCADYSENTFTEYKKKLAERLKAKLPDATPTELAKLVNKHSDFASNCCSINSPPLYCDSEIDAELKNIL

On to complement C3b (natural protein), for which the fold increase in intensity of the C3b:DBP band, denatured versus native DBP turned out to be 5 fold.
